Measurements taken from the domain aggregation screens of Martell et al. (2025).

Experiment: soluble fraction after stress (log2 fold change); higher = more stays soluble; pooled small domains, quantitative proteomics
Details: stress: pH 4
Procedure, shortened: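 Pooled custom libraries of small protein domains were stressed at pH 4 and then measured by high-throughput quantitative proteomics. The fold change in the amount of each domain that stays soluble after the acid stress serves as a measure of aggregation propensity. Fold changes are given on a log2 scale, and higher values mean more of the domain stayed soluble.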

Sequence	soluble fraction (log2)
HMLAHSEFGARLRETRKRLGLSQSELGGDRYSGSYISHLESGRRAASAEVIEFLAGRLGVEVEELGM	-1.2
HMLAIELDDKPGSLLRALEIFAKRNLNIEYMYAFTEKRGDKAVMIFKFSDIETAKKSLLEEGFN	-1.13
HMLAKNDSGLNNHTFNAIRDALLEALADGPAEAKKLTENISFPSDKIITVIRFLADHDDRFSLEDGILSLT	-0.846
HMLAKYEIIKQDIIQMIEEKKFKPGDKIYSEGELKKIYNVSSTTVVRALQDLVLSGYLIRKQGEGTYVRK	0.222
HMLASDYEEELSVLIKMSHKIAAGDDSLMDDFNDRVTMFESSYPINKATKDLTPVLERVNKFQT	-0.295
HMLDDDAGMIQAILRKAPGHYLPLHDKSDPASIQAQLGISKAQFKRAVGTLMKQGLIRQVKGDGLYLTQ	0.125
HMLDDESLHFFYKKDGWEYWMKTTTENNYPIQLRKKIGDEKVQEYWNGDKEKKKIGASYFGV	-0.6
HMLDFLVSKYESELLADLLWSLGVVAVEEREATGDLVTLRTSLGDDHSFTRELVQEKFPDVIVSTAL	-2.23
HMLDIVVGSTGYALGEITDHSGTVRVNGDTWTARLVDAAGPVEDGDRVEVYAVEGTTLLVYPS	0.128
HMLDKEDNANAGKTLLERELSRAHLSDVEHRELAQRLHLASEQELYIKIGSGDLSIIQALNRAKEFKDT	-0.8
HMLDKRSHAKKVLDAIEAVILGRATNDQLAYTINGRSLQKTPLPDLLRLRSQYQAEYQRELRAERIRKG	≥ 0.43
HMLDLPVKTINGKQYYYYTVKKGDTVYSLITRFGITRSDLVESNPAAADVLKTGDTLYFAVDKFG	0.0813
HMLDLYYDSEDKLLIDMGTGEVIRSFADDKRSLVFDAQAKILFDEDSGDIVYSSYFDKLITDKLASKS	-1.51
HMLDPIQEGKKMLNSRLSGFGITPNTRLMNKLLAAYNISSREEFYGRIGAGIEDLSTLREVLLKGT	-0.182
HMLDQSYYETANEIISRYPLEEKSLIPIIQDIQATYRYLPPDLLDYVAKKIGITETKAYSVASFYENFSF	-1.09
HMLDRNKLNELDAYIESFEDKPSHLIMILHRAQGLFGYLPKELQIYVAEKTGVPAAKVYGVVTFYSFFTMK	-0.737
HMLEDDTVNTAEGIKIGDSFAAVTKAYGTDYVAAGNTYAYSKDKMTLTFVMNNDKVSTISYSLLTS	-0.412
HMLEDYFKEEEYTEVLKIPKEYIKGFQYYLIEDAEFVNALRAKNKTMTLFLAKKLASDYIEIIRREQ	-1.31
HMLEIGRYNTLTVLRKVDFGYYLDGLDYGDILMPAKYAATELEAGDEVDVFIYLDSSEKLIATTETPIAQ	-1.58
HMLEIQENFQNILKRMELSLSPLERRVLALYLSGYERSEIPEKTGIPLKTFDNALHRVRNKMK	-0.711
HMLEKDIGKAITILRKSYQLSISAFSMRTGYSRVHISEVESGKRKATDELISVIRNVFHLDSNWPF	-0.517
HMLELDRTNLLGVFGSKSNPYALIMLSNGEMLKLSIGDQFLGWRVYAIDQTTVHVQNGKNQEILRIP	-0.772
HMLELLSMEDIQRTRVGDLIATVRQVDRQHALVLDRDPETGKPAVRGIFSLSQISLRLGLNI	-0.733

Sequence	soluble fraction (log2)
HMLEPGIAVLKTLMSQYRLGVADLPELGSKSNVSKLLNAVEGKKLTRQHIEALSKRFAVSPALF	0.114
HMLEPGQKVKSVVVDISGDLIYIDLGGKTEGVVELKEFYDEAGEYHVKPGDEIEVFFVSVQNGLKRFTT	-0.403
HMLEQISDPEVLSKLADEVLSQQEKMVMDYRKGKTAAFQGLMGQMMKKTKGKGNPAKIQEILAQKL	-0.192
HMLEQLTPRELKVLQALAQGRQNKEIAAQLVISERTVKFHVSAILSKLNVGNRTEAVTVAAQRGLISL	-0.729
HMLEQSYYEKTDEIIELHGAKASSLIPVMQDVQAEYRYLPGELLSYIADKLGIPLAKAYSVATFYENFS	-0.951
HMLERKFGTSLEIKSLSKFLIENNYKKNAKYLNKLIQVLGTRSENRIIKTFFKQFPEIENIFRNQL	-0.493
HMLETADDAKRFLGAIISEKKAENLLRVYPDIIERIVAGKPVDLSLVKGIKQKTFDKLRQKVISHYSMY	-0.0382
HMLETHRRRQIILSLLRESGMLDVDEVAARLVVSPNTIRNDFNALAAEGLLRRIRGGATLAEP	-0.171
HMLFKNASGTVVSRIQSQVDGQINIRTGSGNAPDYAFVAKPDGAVELYHNGTKQFETGSSGVLLP	-0.527
HMLFQQPATMIGKIGVAMSDLRPSGKIKIDDEWYDGQSEGDYILKGQEIIVVQVMNAYLIVRL	-0.44
HMLFRGNGFNTLYDKQLRITQQGEFKDGRLWDGKYYRYSKAGELVRIEIYEQGRYAGNGVITDEDKA	-0.0519
HMLFSDSDLKSLLDKDISYVIEMYKAASKEQKRIISDMVAQKVMEKKYIDANILIQLGELTGINYMDL	-1.32
HMLFSEKLKQAMQDLHLNQIQVVGLTGKSKGSISQYISGKQVPSEATQRDIAISLGLEENYFSKK	0.216
HMLFYSDLVRLISFAEATLGKNEFETWYMSHHQGMKYTEIAIALGISVRTVEDRIARTKNHFRKI	-1
HMLGAGFDSDLTARENIFLNGALLGHSRAVMRGYYDDIVNFAELHDFMDVPVKNFSSGMTSRLAFSIATIG	0.183
HMLGARIAALRRQAGMNQGELAKKLGISPSTVGMYEQGRREPSAEMLVRLAEAFSVSTDFLLT	-0.0832
HMLGERIRRLRKEMGMSVTELARRVKTSPSYISEIEKGEKTPSLNLLVRIASELRTGIDYLTGL	-0.00698
HMLGIGANVQKIAQERKISLKELSRRAGIPYTTIYNMVKRDSSRVSPENLQKLADALGVEIGKLYG	≥ 0.43
HMLGSQQAYTDALRLTGLPVDIEVIESDRLPFLIPMRYSLDQHLIEVNVRYPDTRAIRVQQMVEELFHA	-0.415
HMLGVKKFGGEAVIAGNIILRQRGTKWITGSNVGIGKDHTLFAKIEGYVVFERMRGRDGQQQISIYP	-0.192
HMLGYQALASAFRSKVEAGIWPIGEAIPSEARLSKEYGVAVGTIRQAIAELAEEGILIKRHGKSTMVSSG	0.101
HMLHEFSGVVVSILADTGPSTLKQLHRSLISSDVKMDEKELMQILDEALSSGSVTSHRKGRYLYYSANK	-0.399
HMLHIKKGDTVIVNAGESKGQQGKVLEVLVGKERAIVEGVNMVSKHTKPNAKNPQGGIVKKEAPIHISNLQ	0.0699

Sequence	soluble fraction (log2)
HMLHPLLWAVDEPTPVTVRTRPEYVPDVVRWLMQPESQREHDGVVDLRYTVTHRAAFRSRIYVLGTRVTIP	0.17
HMLIADADSLRKQIETVLANAPNEVAAYRGGKETLMGWFVGQIMRATGGKADPKLTREILAELLQ	-0.126
HMLIADSDALRSQIESILNGNPNEVASFRAGKESLMGWFVGQVMRSTGGKADPKRTRELLQELLTK	-0.0841
HMLIDSEILKKTNKITIFLIYAFFSEYLINKEKKKILIGEYIKLSKDFLTIEEVKYFNHLLDDISK	-0.304
HMLIDSNNYFFYKVKPKEGFYSLQKKLGVNRSEIEKHNPSLINEVLKEGMILKIPKYLLNFDLN	-0.214
HMLILTWNYPYEYPMMMRSFLQEIGISRTFLAHIKSNGELLINGRHEIVLKTLQPGDVLTMVIPPSG	-0.78
HMLINLGPRIRKERRSKGISQSDFSKNLGISASYLNLLENGRRTLTVPLLIKIGNELNLSLKDL	0.113
HMLISAESVKRRLEMIRHLILLGDYEDVTAQVIKLNPAANEYKLTPIIEELNGGKYQEALEKINSYLSKF	-0.127
HMLISKNLLGFTIKNTSGVTFGTLKDIMWLPSNDVYVIDNNGKEYLIPVISEIVKSINYDKGSITIFP	-0.398
HMLKASEVLPYVFTDKFFIDDLNLKQDQILGFLEYIDSKLPSQKLLQVSQQFQLIDFLINESKNYKNQ	-0.252
HMLKDININVTGLDQISNAKLINNLNLLKMNNLFFLDEKKIKKILNSNNLIEKFFIFKKYPSTLDIKVYKT	0.22
HMLKHNLLSELSRIEGVGAVKRKALMDKFGTVENIKRASEEELSEVAGIGPTLARTIKEQMNKDE	-0.2
HMLKKRKPMSGVGVIVKGMLTGTVTGTDGSYALKARPNDELSFSFLGYKTQEVFVGSKSTIDITLVDEA	-0.0294
HMLKLEEIQPNATVRGILPDALITVVNVKWFGSEALELTYKDTSGRVANQLLFRDDQPRLEIVE	-1.12
HMLKLEPYTINEINSLQELYDLGNVRALETLISIYKDKNQVYDTRFYVLDILSKYDNPLIQEALEESITN	-1.89
HMLKLPVEYLNLKYQLMHATSLDKPNNLMKLDEKLGKIIDVYYDDLPVDEQRVVDILQSKLYSY	-1.72
HMLKLYILTDGKNYVMDDPIHPGRVMYSTSPVNAKKFTFKQARALLNNKSKKLSWIRSFNMVDDSSGEKI	0.417
HMLKREDEVIVVAGKDKGKRGTITQLVGDDRVIVAGVNMVKRHTKPNPNLGQPGGIVEREASLHISNV	-0.162
HMLKVHPRDQEENRLLLLKGERLYEESTGDTRVMIDMWLRKFEEALNSRSRENIEDARRELKEQLAELDN	-0.312
HMLLAPLRLGAAPDIKAQAPLATILARHNGEMEAKDLWQRFGGEIDAFYLQLKTEVAHGWIVEPEPA	0.0787
HMLLELINLQVKILENEELKIIGKVIDLENEKNNLLVIELLKDQKKVLVPFVKEIVPLIDIKNNFIMINPP	-0.703
HMLLFNVADIVKRAKRVLNFKTDAELAAYLGVSRPTLSNWIARNGIDFPLLLEKLKEIDYNWLLVGKGKPE	-0.114
HMLLGPDALTNRELDVLALLERRLSNKEIGALLYISPRTVKRHTINIYQKLHVNNRRAAVAQAKALGLMPD	-0.489
